Test results from patent publication US20230190879A1 (JIANGSU HENGRUI PHARMACEUTICALS, published 2023).
Like-named read-outs stand apart in the source and are kept apart here. *1 amine or outer side, *2 acyl side, *3 side chain or, on linkers, in order; H or OH if unused. Where no end group is shown, it is not given here. Side-chain parts run from the residue outwards. [ ]: non-standard residue; d: D form. γGlu = O=C(O)[C@H](CCC(=O)[*:2])N[*:1]; AEEA = NCCOCCOCC(=O)O; Aib = CC(C)(N)C(=O)O

T1: human glucose-dependent insulinotropic polypeptide receptor (GIP receptor) (human, UniProt P48546 22-466)
T1 sequence (looked up): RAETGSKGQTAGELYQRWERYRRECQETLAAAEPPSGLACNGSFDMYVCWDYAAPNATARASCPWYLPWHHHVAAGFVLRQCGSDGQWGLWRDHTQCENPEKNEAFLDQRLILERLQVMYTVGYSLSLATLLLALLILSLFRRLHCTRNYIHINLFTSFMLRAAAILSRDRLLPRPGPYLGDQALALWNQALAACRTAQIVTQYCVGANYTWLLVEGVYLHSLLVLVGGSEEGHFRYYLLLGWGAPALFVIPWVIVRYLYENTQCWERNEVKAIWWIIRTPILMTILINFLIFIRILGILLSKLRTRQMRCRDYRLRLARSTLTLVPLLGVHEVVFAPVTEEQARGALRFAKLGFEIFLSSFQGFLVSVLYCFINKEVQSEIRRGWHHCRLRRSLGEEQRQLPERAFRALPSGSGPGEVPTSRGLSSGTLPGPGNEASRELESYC

B1: compound 10# (peptide)
peptide: Y[Aib]EGTFTSDYSIYLEK([AEEA-AEEA-γGlu-C20‑OH])IAAQEFINWLIAGGPSSGAPPPS-NH2
B2: compound 14# (peptide)
peptide: Y[Aib]EGTFTSDYSIYK([AEEA-AEEA-γGlu-C20‑OH])EKIAAQEFINWLIAGGPSSGAPPPS-NH2
B3: compound 9# (peptide)
peptide: Y[Aib]EGTFTSDYSIYLEK([AEEA-AEEA-γGlu-C20‑OH])IAAQEFVNWLIAGGPSSGAPPPS-NH2
B4: compound 12# (peptide)
peptide: Y[Aib]EGTFTSDYSIYK([AEEA-AEEA-γGlu-C20‑OH])EKIAAQEFVNWLIAGGPSSGAPPPS-NH2
B5: compound 16# (peptide)
peptide: Y[Aib]EGTFTSDYSIYK([AEEA-AEEA-γGlu-C20‑OH])EKIAAQEFINWLLAGGPSSGAPPPS-NH2
B6: compound 17# (peptide)
peptide: Y[Aib]EGTFTSDYSIYK([AEEA-AEEA-γGlu-C20‑OH])ERIAAQEFVNWLLAGGPSSGAPPPS-NH2
B7: compound 18# (peptide)
peptide: Y[Aib]EGTFTSDYSIYK([AEEA-AEEA-γGlu-C20‑OH])EKIAAQEFVNWLLAGGPSSGAPPPS-NH2
B8: compound 7# (peptide)
peptide: Y[Aib]EGTFTSDYSIYK([AEEA-AEEA-γGlu-C20‑OH])DKIAAQEFVNWLLAGGPSSGAPPPS-NH2
B9: compound 15# (peptide)
peptide: Y[Aib]EGTFTSDYSIYK([AEEA-AEEA-γGlu-C20‑OH])ERIAAQEFINWLIAGGPSSGAPPPS-NH2
B10: compound 13# (peptide)
peptide: Y[Aib]EGTFTSDYSIYK([AEEA-AEEA-γGlu-C20‑OH])ERIAAQEFVNWLIAGGPSSGAPPPS-NH2

How the values were obtained:
Experiment in all cases: cell-based or functional assay
[1] = molecular target: human glucagon-like peptide-1 receptor (GLP-1R) (human) (UniProt P43220)
[2] = molecular target: human glucose-dependent insulinotropic polypeptide receptor (GIP receptor) (human) (UniProt P48546)
[3] = molecular target: human glucagon-like peptide-1 receptor (GLP-1R) (human) (UniProt P43220); remark: listed apart in the source
[4] = molecular target: human glucose-dependent insulinotropic polypeptide receptor (GIP receptor) (human) (UniProt P48546); remark: listed apart in the source
[5] = molecular target: T2, human glucagon-like peptide-1 receptor (GLP-1R) (human, UniProt P43220 24-463)
[6] = molecular target: T1, human glucose-dependent insulinotropic …
[7] = molecular target: T2, human glucagon-like peptide-1 receptor …; remark: listed apart in the source
[8] = molecular target: T1, human glucose-dependent insulinotropic …; remark: listed apart in the source

T2 sequence (P43220 24-463): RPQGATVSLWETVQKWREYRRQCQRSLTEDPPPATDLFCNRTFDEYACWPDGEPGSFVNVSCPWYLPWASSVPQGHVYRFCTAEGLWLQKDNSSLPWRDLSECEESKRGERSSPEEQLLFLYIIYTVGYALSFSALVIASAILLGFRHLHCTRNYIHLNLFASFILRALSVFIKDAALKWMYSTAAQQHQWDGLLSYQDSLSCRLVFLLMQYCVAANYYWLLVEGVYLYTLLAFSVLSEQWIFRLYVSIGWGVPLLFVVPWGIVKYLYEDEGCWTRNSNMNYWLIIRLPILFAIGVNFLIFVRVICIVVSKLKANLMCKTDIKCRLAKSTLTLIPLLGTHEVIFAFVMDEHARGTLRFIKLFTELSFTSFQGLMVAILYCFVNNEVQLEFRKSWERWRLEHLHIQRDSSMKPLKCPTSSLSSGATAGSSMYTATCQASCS
human glucagon-like peptide-1 receptor (GLP-1R) (human), sequence (P43220 24-463): as above

| Molecule | Human GLP-1R activity (EC50 nM); cAMP HTRF in CHO-K1/GLP-1R/CRE-luc cells [5] | Human GIP receptor activity (EC50 nM); cAMP HTRF in CHO-K1 cells transfected with hGIP receptor [6] | further results |
| --- | --- | --- | --- |
| LY3298176 (peptide) | – | – | Human GLP-1R activity (EC50 nM); cAMP HTRF in CHO-K1/GLP-1R/CRE-luc cells [1]: 0.13 nM; Human GIP receptor activity (EC50 nM); cAMP HTRF in CHO-K1 cells transfected with hGIP receptor [2]: 0.056 nM; Human GLP-1R activity (EC50 nM); cAMP HTRF in CHO-K1/GLP-1R/CRE-luc cells [3]: 0.078 nM; Human GIP receptor activity (EC50 nM); cAMP HTRF in CHO-K1 cells transfected with hGIP receptor [4]: 0.031 nM |
| Natural GIP (from UniProt P09681 52-93) (ligand) | – | – | Human GIP receptor activity (EC50 nM); cAMP HTRF in CHO-K1 cells transfected with hGIP receptor [4]: 0.006 nM |
| B1 | 0.065 nM | 0.056 nM | – |
| B2 | 0.013 nM | 0.13 nM | – |
| B3 | 0.049 nM | 0.04 nM | – |
| B4 | 0.03 nM | 0.17 nM | – |
| B5 | 0.029 nM | 0.095 nM | – |
| B6 | 0.022 nM | 0.11 nM | – |
| B7 | 0.013 nM | 0.06 nM | – |
| B8 | – | – | Human GLP-1R activity (EC50 nM); cAMP HTRF in CHO-K1/GLP-1R/CRE-luc cells [7]: 0.021 nM; Human GIP receptor activity (EC50 nM); cAMP HTRF in CHO-K1 cells transfected with hGIP receptor [8]: 0.11 nM |
| B9 | 0.015 nM | 0.23 nM | – |
| B10 | 0.017 nM | 0.13 nM | – |
